Test results published in US12168677B2, “Proteins for the treatment of epithelial barrier function disorders” (Genevive, Inc., priority 2017, dated 2024).

B1: SG-16: 119 amino acid protein (SEQ ID NO:9) encoded by the genome of Eubacterium eligens (protein, listed as Eubacterium eligens)
chain: MTGCSGSKEPDNKTSVDYTVVENADLPEELKKLIESKKDKVMRLTYTTKDYTYVVAGYGTRETSGYSIKVNDVYTGDNALYIDLNLIGPAAGEAVNEVETYPVIVLKMERREESVVFKM
B2: SG-17: 327 amino acid protein (SEQ ID NO:13) encoded by the genome of Eubacterium eligens (protein, listed as Eubacterium eligens)
chain: CNSKIDVKYDYNVEDYVQLGQYENISVQVDKTSIENELIESKIKQDVEDNTTYTEVDRGAIASDQILVTYTATSSGASLSGLTNTDGKTMILGTDTLGLELDELDQALYGMTPGQTKILIVDIPEDYSSDLYKGTRVVFELTMQTVAQANVPMITNAYVKEAFGYDTVEEYRQSIKESLETDINSKVENKIQEDVLSSLQDTFKISSYPDSLMEETRSRLETSIGFYADFSNLSKDEYCQKQYGLSFDDFVKKSVVQQLIMEAIVKDRNMTMREYDYKGSLDDFAADNGYSNADTFVEKFGKDKIVKAMLVQKAQDYVIEHANISYK
B3: SG-15: 400 amino acid protein (SEQ ID NO:1) encoded by the genome of Eubacterium eligens (protein, listed as Eubacterium eligens)
chain: EYTEIRTASELVEAAKSASGNYKLMTDIDMTGVEWTPWDFSGTFDGNGHSILNLSVKTVSKKTMKTYDGNRKEYKTYGAGFFGVLTGAKVTGLDIYGARIEITTTEPCFAAPIAGLADDSDISDCIIKDTYVSLTDSAKMWGTGGIAGFGSGNLDNITTDVTLVCVDTDAAVRDEQFMGGAYAAGFLNIRNCSITIDGYDSDHGYVHDGGLVGMYMVYPLELSKTYQGEVLNNKVKGMITFFEDNTDRRAYCQANMGEVMNWTYAYSGFTSDFKRNETYDYSVTLLPEMCSNPSYTDVVTEATASDFGYTTHTCSTCGYTYSDTYTIHEHKVDSYSVVKEAASTDKKDGIEAGTCSLCNQTVYREYAANVVTDDNTQATDNKASGTAVKKGMKESTAVFA
B4: SG-18: 267 amino acid protein (SEQ ID NO:19) encoded by the genome of Clostridium bartlettii sp. nov. (protein, listed as Clostridium bartlettii)
chain: EVDSSKEQATSKDEKQVVVATSVAITEILDRLGVEVSGVPQTSYELPESAKGATEIGSPMNPDMEIIKSLNPTDVICVDTLGSDFEKQFEENNINADFYNLSNVDGLKETIAALGEKFNKQDKANEILDEIKEVENKVNSNKKSDDKILVLFGAPGSVMVATDKSYIGNLVELAGGNNIFSNATSSFTQINLEEIIKLNPDKILVMTHAVPEAAKKSVEEELSKDLWKNVNAVKNNDITYLENGYFGMSANLQIVEAVEKLGDILYE

Test system: TNF-α
Test: TNF-α production by monocytes in co-culture TEER assay (Luminex)
Type: cell-based, human
Details: pre-incubated 6 hours prior to HK E. coli; basolateral supernatant
Protocol: (§1) Production of the cytokines TNF-α, IL-23, and IL-10 by monocytes was measured in the tissue culture supernatant from the basolateral chamber of the co-culture TEER assay performed in Example 1B. Following TEER readings, the supernatants were centrifuged at 10,000 g for 5 minutes at 4° C. to remove cell debris. Luminex analysis was performed according to the manufacturer's instructions (Magpix instrument and xPonent software version 4.2; Luminex Corporation (Austin, TX)). Luminex analysis was performed to determine the […] concentration of TNF-α and IL-23 produced by monocytes. Luminex analysis utilizes a bead-based system for quantification of multiple cytokines from a single sample. Like an ELISA, Luminex beads are coated with a capture antibody, and incubation with samples allows the target to bind to the capture antibody. Beads are washed and incubated with a fluorescently labeled detection antibody for quantification of bound target. Cytometric analysis is used to differentiate bead populations, which are loaded with differential fluorescent dyes, and to quantify cytokine levels by measuring detection antibody signal. TNF-α, IL-23, and IL-10 production in untreated cells and cells pre-incubated with SG-15 for 6 hours prior to HK E. coli treatment was normalized to pg/ml concentrations elicited by HK E. coli only, which was set to 1.0. […] The graphs in FIGS. 2A, 2B and 2C each represent data pooled from an individual experiment (n=3).

| Molecule | TNF-α production normalized to HK E. coli only (set to 1.0) |
| --- | --- |
| B1 | 1.29 |
| B2 | 0.73 |
| B3 | 0.91 |
| B4 | 1.06 |

Test system: IL-10
Test: IL-10 production by monocytes in co-culture TEER assay (Luminex)
Type: cell-based, human
Details: pre-incubated 6 hours prior to HK E. coli; basolateral supernatant
Protocol: as §1

| Molecule | IL-10 production normalized to HK E. coli only (set to 1.0) |
| --- | --- |
| B1 | 1.23 |
| B2 | 0.51 |
| B3 | 0.66 |
| B4 | 0.93 |

Test system: not listed separately
Test: DSS model: body weight
Type: in vivo, C57BL/6 mice
Details: 50 nmoles/kg i.p. b.i.d.; 2.5% DSS 6 days; percent change from day 0
Protocol: Eight-week old C57BL/6 mice were housed 5 animals were cage and given food and water ad libitum for 7 days. Following the 7-day acclimation period, treatments were initiated concurrently with addition of 2.5% DSS to the drinking water. […] The mice were treated with 2.5% dextran sodium sulfate (DSS) in their drinking water for 6 days. Treatments were continued with SG-15 or […]-GLP2 twice a day (b.i.d.) in the morning and evening (every 8 and 16 hr) with i.p. injections at 50 nmoles/kg. Fresh 2.5% DSS drinking water was prepared every 2 days. Body weight was measured daily from mice included in the DSS model described in Example 1E. Percent change from starting weight on day 0 was determined for each mouse. […] Weight loss in mice treated with SG-15 at day 6 was similar to weight loss observed with […]-GLP2. The graphs in FIG. 6 represent data pooled from the 2 individual experiments (n=20).

| Molecule | Body weight compared to vehicle-treated DSS mice |
| --- | --- |
| B2 | did not alter body weight |
| B3 | significantly improved body weight |
| B4 | did not alter body weight |

Test system: DSS treated mice
Test: DSS model: gross pathology score
Type: in vivo, C57BL/6 mice
Details: 50 nmoles/kg i.p. b.i.d.; 2.5% DSS 6 days
Protocol: Eight-week old C57BL/6 mice were housed 5 animals were cage and given food and water ad libitum for 7 days. Following the 7-day acclimation period, treatments were initiated concurrently with addition of 2.5% DSS to the drinking water. […] The mice were treated with 2.5% dextran sodium sulfate (DSS) in their drinking water for 6 days. Treatments were continued with SG-15 or […]-GLP2 twice a day (b.i.d.) in the morning and evening (every 8 and 16 hr) with i.p. injections at 50 nmoles/kg. Fresh 2.5% DSS drinking water was prepared every 2 days. Gross pathology observations were made in mice included in the concurrent DSS model performed in Example 1E. […] The scoring system used was: (0)=no gross pathology, (1)=streaks of blood visible in feces, (2)=completely bloody fecal pellets, (3) bloody fecal material visible in cecum, (4) bloody fecal material in cecum and loose stool, (5)=rectal bleeding. Results are shown in FIG. 7, with the graph representing data pooled from the 2 individual experiments (n=20).

| Molecule | Clinical scores compared with DSS mice treated with Gly2-GLP2 |
| --- | --- |
| B3 | No differences |

Same assay, conditions: 50 nmoles/kg i.p. b.i.d.; 2.5% DSS 6 days; score 0-5

| Molecule | Gross pathology compared to vehicle treated DSS mice |
| --- | --- |
| B1 | did not reduce gross pathology |
| B2 | did not reduce gross pathology |
| B3 | significantly improved gross pathology |
| B4 | did not reduce gross pathology |

Test system: DSS treated mice
Test: DSS model: colon length
Type: in vivo, C57BL/6 mice
Details: 50 nmoles/kg i.p. b.i.d.; 2.5% DSS 6 days
Protocol: Eight-week old C57BL/6 mice were housed 5 animals were cage and given food and water ad libitum for 7 days. Following the 7-day acclimation period, treatments were initiated concurrently with addition of 2.5% DSS to the drinking water. […] The mice were treated with 2.5% dextran sodium sulfate (DSS) in their drinking water for 6 days. Treatments were continued with SG-15 or […]-GLP2 twice a day (b.i.d.) in the morning and evening (every 8 and 16 hr) with i.p. injections at 50 nmoles/kg. Fresh 2.5% DSS drinking water was prepared every 2 days. Colon length was measured in mice included in the DSS model described in Example 1E. […] The graph in FIG. 8 represents data pooled from the 2 individual experiments (n=20).

| Molecule | Colon length / colon shortening elicited by DSS treatment |
| --- | --- |
| B1 | slightly improved colon shortening |
| B2 | did not reduce colon shortening |
| B3 | reduced colon shortening |
| B4 | did not reduce colon shortening |
